Test results taken from US20190085323A1 (published 2019).

Experiments:
[1] = target: T1, HER2 on the surface of N87 gastric cancer cells (human, UniProt P04626 23-1255); experiment: flow cytometry on N87 cells, 0.5 nM scFv detected with AL1-RFP
T1 construct: whole, on cells; also called cell surface HER2

[2] = target: T1, HER2 on the surface of N87 gastric …; experiment: cell-based or functional assay
[3] = target: HER2 on the surface of N87 gastric cancer cells (human) (UniProt P04626); experiment: flow cytometry on N87 cells, 0.5 nM scFv detected with AL1-RFP
[4] = target: HER2 on the surface of N87 gastric cancer cells (human) (UniProt P04626); experiment: cell-based or functional assay
[5] = target: T2, HER2-ECD (recombinant extracellular domain of human epidermal growth factor receptor 2) (human, UniProt P04626 23-652); experiment: ELISA, IgG1 titrated on immobilized HER2-ECD
T2 construct: extracellular domain; Recombinant HER2-ECD coated on ELISA plates

Binder	MFI [1]	% cell viability (AL1) [2] [%]	% cell viability (AL2) [2] [%]	MFI [3]	% cell viability (AL1) [4] [%]	% cell viability (AL2) [4] [%]	EC50 [5] [ng/mL]
31YCM#3 source scFv (scFv) DIQMTQSPSSLSASVGDRVTITCKSNQNLLISGNQWTFLNWYQQKPGKAPKLLIYDVSRLYSGVPSRFSGSGSGTDFTLTISSLQPEDFATYYCYQGSDFPGTFGQGTKVEIKREVQLVESGGGLVQPGGSLRLSCKASGYTFARSGMHWVRQAPGKGLEWVAGISPNYGLTHYADSVKGRFTISADTSKNTAYLQMNSLRAEDTAVYYCARGFGVLDYWGQGTLVTVSSASAAA	177	96.4	91.5	–	–	–	–
35WYK-9 source scFv (scFv) DIQMTQSPSSLSASVGDRVTITCKSNQNLLLSNGRTFLHWYQQKPGKAPKLLIFDVSNLYSGAPSRFSGSGSGTDFTLTISSLQPDDFATYYCSQTSRFPWTFGQGTKVEIKREVQLVESGGGLVQPGGSLRLSCKASGYTFSHWGMHWVRQAPGKGLEWVAGIYPYFGNTYYADSVKGRFTISADTSKNTAYLQMNSLRAEDTAVYYCARGLLDYWGQGTLVTVSSASAAA	265	84.7	80.9	–	–	–	–
30CHS-41 source scFv (scFv) DIQMTQSPSSLSASVGDRVTITCKSNQNLLDSGHQRTYLNWYQQKPGKAPKLLIYHTSLLYSGVPSRFSGSGSGTDFTLTISSLQPEDFATYYCSQTFRHPGTFGQGTKVEIKREVQLVESGGGLVQPGGSLRLSCKASGYTFTHWGMHWVRQAPGKGLEWVARINPYYGLTHYADSVKGRFTISADTSKNTAYLQMNSLRAEDTAVYYCARGHWLDYWGQGTLVTVSSASAAA	153	77.6	71.6	–	–	–	–
29TYL#1 source scFv (scFv) DIQMTQSPSSLSASVGDRVTITCKSNQNLLLSNGWTFLNWYQQKPGKAPKLLISRISDLYSGVPSRFSGSGSGTDFTLTISSLQPEDFATYYCFQASDFPYTFGQGTKVEIKREVQLVESGGGLVQPGGSLRLSCKASGYTFSTGSMHWVRQAPGKGLEWVAHINPHFGLTLYADSVKGRFTISADTSKNTAYLQMNSLRAEDTAVYYCAGSGFDYWGQGTLVTVSSASAAA	491	67.5	32.7	–	–	–	–
30CHS-12 source scFv (scFv) DIQMTQSPSSLSASVGDRVTITCKSNQNLLDSGNQGTFLNWYQQKPGKAPKLLIFGTSHLYSGVPSRFSGSGSGTDFTLTISSLQPEDFATYYCSQSTDLPFTFGQGTKVEIKREVQLVESGGGLVQPGGSLRLSCAASGFTISDYWIHWVRQAPGKGLEWVAGINPYYGVTVYADSVKGRFTISADTSKNTAYLQMNSLRAEDTAVYYCARGGVLDYWGQGTLVTVSSASAAA	198	64.9	61.7	–	–	–	–
29TYL#10 source scFv (scFv, V domains shown, not shown: large carriers, VL-linker-VH scFv; linker and E-tag not given) VH: EVQLVESGGGLVQPGGSLRLSCKASGYTFTDGSMHWVRQAPGKGLEWVAYINPYFGDTYYADSVKGRFTISADTSKNTAYLQMNSLRAEDTAVYYCARGWIDYWGQGTLVTVSS VL: DIQMTQSPSSLSASVGDRVTITCKSNQNLLLSNGRTFLYWYQQKPGKAPKLLIYGTSYLYSGVPSRFSGSGSGTDFTLTISSLQPEDFATYYCFQANHLPWTFGQGTKVEIKR	–	–	–	444	79.9	64.8	–
2835-28 source scFv (scFv, V domains shown, not shown: large carriers, VL-linker-VH scFv; linker and E-tag not given) VH: EVQLVESGGGLVQPGGSLRLSCKASGYTFTDGSMHWVRQAPGKGLEWVAYINPYFGDTYYADSVKGRFTISADTSKNTAYLQMNSLRAEDTAVYYCARGWIDYWGQGTLVTVSS VL: DIQMTQSPSSLSASVGDRVTITCKSNQNLLLSNGRTFLYWYQQKPGKAPKLLIYGTSYLYSGVPSRFSGSGSGTDFTLTISSLQPEDFATYYCFQANHLPWTFGQGTKVEIKR	–	–	–	495	52.8	29.9	–
30CHS-13 source scFv (scFv) DIQMTQSPSSLSASVGDRVTITCKSNQNLLDSGNQRTYLNWYQQKPGKAPKLLIYHTSRLYSGVPSRFSGSGSGTDFTLTISSLQPEDFATYYCSQTFRHPGTFGQGTKVEIKREVQLVESGGGLVQPGGSLRLSCKASGYTFGHYSMFWVRQAPGKGLEWVASIYPHYGHTYYADSVKGRFTISADTSKNTAYLQMNSLRAEDTAVYYCARGHWLDYWGQGTLVTVSSASAAA	93	75.8	77.7	–	–	–	–
31YCM#3 IgG1 (antibody, V domains shown) VH: EVQLVESGGGLVQPGGSLRLSCKASGYTFARSGMHWVRQAPGKGLEWVAGISPNYGLTHYADSVKGRFTISADTSKNTAYLQMNSLRAEDTAVYYCARGFGVLDYWGQGTLVTVSS VL: DIQMTQSPSSLSASVGDRVTITCKSNQNLLISGNQWTFLNWYQQKPGKAPKLLIYDVSRLYSGVPSRFSGSGSGTDFTLTISSLQPEDFATYYCYQGSDFPGTFGQGTKVEIKR	–	–	–	–	–	–	7.3
31YCM#5 source scFv (scFv) DIQMTQSPSSLSASVGDRVTITCKSNQNLLDSHGWTYLHWYQQKPGKAPKLLIYDASNLYSGVPSRFSGSGSGTDFTLTISSLQPEDFATYYCSQSYRLPYTFGQGTKVEIKREVQLVESGGGLVQPGGSLRLSCKASGYTFGGSYMHWVRQAPGKGLEWVARIYPHYGYTYYADSVKGRFTISADTSKNTAYLQMNSLRAEDTAVYYCARGDDHFDYWGQGTLVTVSSASAAA	165	89.5	71.8	–	–	–	–
35WYK-16 source scFv (scFv) DIQMTQSPSSLSASVGDRVTITCKSNQNLLLSNGRTFLYWYQQKPGKAPKLLIYDVSDLYSGVPSRFSGSGSGTDFTLTISSLQPEDFATYYCFQGNNFPYTFGQGTKVEIKREVQLVESGGGLVQPGGSLRLSCKASGYTFGTSWMHWVRQAPGKGLEWVAGITPYYGLTFYADSVKGRFTISADTSKNTAYLQMNSLRAEDTAVYYCARGNLDYWGQGTLVTVSSASAAA	299	72.2	41.4	–	–	–	–
35CPT-9 source scFv (scFv) DIQMTQSPSSLSASVGGRVTITCKSNQNLLDSYGRTYLYWYQQKPGKAPKLLISGTSGLYSGVPSRFSGSGSGTDFTLTISSLQPEDFATYYCFQGYDYPFTFGQGTKVEIKREVQLVESGGGLVQPGGSLRLSCKASGYTFGDYGMHWVRQAPGKGLEWVAHIAPNDGITHYADSVKGRFTISADTSKNTAYLQMNSLRAEDTAVYYCARGYGWYDHVMDYWGQGTLVTVSSASAAA	287	69.8	17.9	–	–	–	–
